The conditions of this data set: Bacillus amyloliquefaciens, 20 °C, Urea, Fluorescence, whole UniProt chain shown.
Setting [1] is: pH 2.76, diglycine 30 mM, NaCl 0.5 M.
The mark [2] stands for this setting: pH 2.82, diglycine 30 mM, NaCl 0.1 M.

B1: Ribonuclease wild type, P00648 (protein)
chain: MMKMEGIALKKRLSWISVCLLVLVSAAGMLFSTAAKTETSSHKAHTEAQVINTFDGVADYLQTYHKLPDNYITKSEAQALGWVASKGNLADVAPGKSIGGDIFSNREGKLPGKSGRTWREADINYTSGFRNSDRILYSSDWLIYKTTDHYQTFTKIR
B1: the denaturant m value is, setting by setting: (pH 2.5, diglycine 100 mM) 3.22 kcal/mol/M; under setting [1], 2.62 kcal/mol/M; under setting [2], 2.97 kcal/mol/M; (pH 2.87, diglycine 30 mM) 3.19 kcal/mol/M; (pH 2.98, diglycine 100 mM) 3.28 kcal/mol/M. In addition, the “denaturant midpoint (higher = more stable)” value by setting is: (pH 2.5, diglycine 100 mM) 0.52 M; under setting [1], 1.61 M; under setting [2], 1.21 M; (pH 2.87, diglycine 30 mM) 1.14 M; (pH 2.98, diglycine 100 mM) 1.39 M. Also, the unfolding free energy runs as follows: (pH 2.5, diglycine 100 mM) 1.66 kcal/mol; under setting [1], 4.2 kcal/mol; under setting [2], 3.58 kcal/mol; (pH 2.87, diglycine 30 mM) 3.63 kcal/mol; (pH 2.98, diglycine 100 mM) 4.55 kcal/mol.

Values taken from FireProtDB (doi:10.1021/bi00125a013).
